Test results as given in paper PMC5129185.

Target: TTP TZF (RBD) (Homo sapiens, UniProt P26651 102-170)
Experiment: NMR

Chain of TTP TZF (RBD) (P26651 102-170): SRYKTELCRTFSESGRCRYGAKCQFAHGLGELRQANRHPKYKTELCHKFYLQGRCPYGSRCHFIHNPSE

UUUUAUUUAUUUU (ssRNA) [ARE13 (NMR)]
binding result: binds
